# Numbering of substitutions follows the chain as printed. Names and notes keep the numbering of the source. Values joined by “and” are separate entries in the source; they are usually repeats but may differ in a detail not shown here. Equal values may be shown once.
# T1: endothelin B receptor (ETB) (UniProt P24530 27-442)
# T1 chain: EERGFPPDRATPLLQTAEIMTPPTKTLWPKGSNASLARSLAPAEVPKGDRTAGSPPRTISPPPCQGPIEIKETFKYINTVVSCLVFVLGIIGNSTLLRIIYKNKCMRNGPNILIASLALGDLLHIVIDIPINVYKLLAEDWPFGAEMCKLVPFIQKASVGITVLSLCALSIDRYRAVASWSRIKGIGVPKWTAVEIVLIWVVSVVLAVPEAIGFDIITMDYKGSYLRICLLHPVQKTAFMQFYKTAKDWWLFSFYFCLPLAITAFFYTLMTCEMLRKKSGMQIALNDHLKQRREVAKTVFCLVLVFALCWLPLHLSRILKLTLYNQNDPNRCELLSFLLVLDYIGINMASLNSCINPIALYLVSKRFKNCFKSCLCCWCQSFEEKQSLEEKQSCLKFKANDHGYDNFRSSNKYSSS
# B1: xiRB49-P125T (antibody, V domains shown)
# VH: QVQLQQPGAALVKPGASVKLSCKASGYTFISYWMLWVKQRPGRGLEWIGRIDPDSGGTKYNEKFKSKATLTVDKSSSTAYMQLSSLTSEDSAVYYCAREGDYAWFAYWGQGTLVTVSA
# VL: DVLMTQTPLSLPVSLGDQASISCRSSQSIVHSNGNTYLEWYLQKPGQSPKLLIYKVSNRFSGVPDRFSGSGSGTDFTLKISRVEAEDLGVYYCFQGSHVPWTFGGGTKLEIK
# B2: recombinant RB49 (reRB49) (antibody, V domains shown)
# VH: B1 VH with T115P
# VL: B1 VL
# B3: Rendomab B49 (RB49), murine mAb purified from hybridoma (antibody, V domains shown)
# VH: B1 VH with T115P
# VL: B1 VL
# Biological target: T1, endothelin B receptor (ETB)
# Experiment: FACS
row,Kd,Binder
1,6 nM,B1
2,3.04 nM,B2
3,4.19 nM and 3.5 nM,B3

# — article PMC10760395 (2023)
